Results published in the RNAGym collection of RNA variant scans (doi:10.7554/elife.80360).

B1: Hairpin Ribozyme (parent)
chain: GUCCUCUUUCACGUGCGCGUGAAAGAGAGAAGUGAACCAGAGAAACACACGUUGUGGUAUAUUACCUGGUA

Variants of: B1
Experiment: self-cleavage, relative activity (ratio to wild type); higher = more cleavage; co-transcriptional
With GUCCUCUUUCACGUGCGCGUGAAAGAGUGAAGUGAACCAGAGAAACACACGUUGGGGUAUAUUACCUGGUA [A28U U55G] the self-cleavage was 0.159. With GUCCUCUUUCACGUGCGCGUGAAAGAGUGAAGUGAACCAGAGAAACACACGUUGCGGUAUAUUACCUGGUA [A28U U55C] the self-cleavage was 0.161. Variant GUCCUCUUUCACGUGCGCGUGAAAGAGUGAAGUGAACCAGAGAAAAACACGUUGUGGUAUAUUACCUGGUA [A28U C46A] has a self-cleavage of 0.0952. For GUCCUCUUUCACGUGCGCGUGAAAGAGUGAAGUGAACCAGAGAAACACACGUUGUGGUCUAUUACCUGGUA [A28U A59C], the self-cleavage was 0.0961. In the case of GUCCUCUUUCACGUGCGCGUGAAAGAGUGAAGUGAACCAGAGAAACACACGUUGUGGUUUAUUACCUGGUA [A28U A59U], the self-cleavage is reported as 0.185. For GUCCUCUUUCACGUGCGCGUGAAAGAGUGAAGUGAACCAGAAAAACACACGUUGUGGUAUAUUACCUGGUA [A28U G42A], the self-cleavage was 0.167. With GUCCUCUUUCACGUGCGCGUGAAAGAGUGAAUUGAACCAGAGAAACACACGUUGUGGUAUAUUACCUGGUA [A28U G32U] the self-cleavage was 0.258. In the case of GUCCUCUUUCACGUGCGCGUGAAAGAGUGAAGUGAACCAGAGAAACACACGUAGUGGUAUAUUACCUGGUA [A28U U53A], the self-cleavage is reported as 0.845. With GUCCUCUUUCACGUGCGCGUGAAAGAGUGAAGUGAACCAGAGAAACACACGUUGUGGUAUAUUACCUUGUA [A28U G68U] the self-cleavage was 0.272. Variant GUCCUCUUUCACGUGCGCGUGAAAGAGUGAAGUGAACCAGAGAAACACACGUUGUGGUAUAUUACCUAGUA [A28U G68A] has a self-cleavage of 0.153. In the case of GUCCUCUUUCACGUGCGCGUGAAAGAGUGAAGUGAACCAGAGAAACACACGUUGUGGUAUAUUACCUCGUA [A28U G68C], the self-cleavage is reported as 0.151. In the case of GUCCUCUUUCACGUGCGCGUGAAAGAGUGAAGUGAACCAGAGAAACACACGUUUUGGUAUAUUACCUGGUA [A28U G54U], the self-cleavage is reported as 0.3. With GUCCUCUUUCACGUGCGCGUGAAAGAGUGAAGUGAACCAGAGAAACACACGUUGUGCUAUAUUACCUGGUA [A28U G57C] the self-cleavage was 0.113. GUCCUCUUUCACGUGCGCGUGAAAGAGAAAAGUGAACCAGAGAAACCCACGUUGUGGUAUAUUACCUGGUA [G29A A47C] showed a self-cleavage of 0.107. For GUCCUCUUUCACGUGCGCGUGAAAGAGAAAAGUGAACCAGAGAAACUCACGUUGUGGUAUAUUACCUGGUA [G29A A47U], the self-cleavage was 0.107. For GUCCUCUUUCACGUGCGCGUGAAAGAGUGAAGUGAACCAGAGAAACACACGUUGUGGUAAAUUACCUGGUA [A28U U60A], the self-cleavage was 0.493. With GUCCUCUUUCACGUGCGCGUGAAAGAGAAAAGUGUACCAGAGAAACACACGUUGUGGUAUAUUACCUGGUA [G29A A35U] the self-cleavage was 0.0646. In the case of GUCCUCUUUCACGUGCGCGUGAAAGAGUGAAGUGAACCACAGAAACACACGUUGUGGUAUAUUACCUGGUA [A28U G40C], the self-cleavage is reported as 0.0881. GUCCUCUUUCACGUGCGCGUGAAAGAGUGAAGUGAACCAGAGAAACACACGUUGUGGUAUAUUACCUGGAA [A28U U70A] gave a self-cleavage of 0.422. Work on GUCCUCUUUCACGUGCGCGUGAAAGAGUGAAGUGAACCAGAGAAACACACGUUGUGGUAUAUUACCUGGUG [A28U A71G] yielded a self-cleavage of 0.673. In the case of GUCCUCUUUCACGUGCGCGUGAAAGAGUGAAGUGAACCAGAGAAACACACGUUGUGGUAUAUUACGUGGUA [A28U C66G], the self-cleavage is reported as 0.302. Variant GUCCUCUUUCACGUGCGCGUGAAAGAGUGAAGUGAACCAGAGAAACACACGUUGUGGUAUAUUACUUGGUA [A28U C66U] has a self-cleavage of 0.207. In the case of GUCCUCUUUCACGUGCGCGUGAAAGAGUAAAGUGAACCAGAGAAACACACGUUGUGGUAUAUUACCUGGUA [A28U G29A], the self-cleavage is reported as 0.0881. In the case of GUCCUCUUUCACGUGCGCGUGAAAGAGUGAAGUGAACCAGAGAAACACACGUUGUUGUAUAUUACCUGGUA [A28U G56U], the self-cleavage is reported as 0.0609. In the case of GUCCUCUUUCACGUGCGCGUGAAAGAGUGAAGUGAACCAGAGAAACACACGUUGUCGUAUAUUACCUGGUA [A28U G56C], the self-cleavage is reported as 0.151. With GUCCUCUUUCACGUGCGCGUGAAAGAGUGAAGUGAACCAGAGAAACACACGUUGUAGUAUAUUACCUGGUA [A28U G56A] the self-cleavage was 0.174. GUCCUCUUUCACGUGCGCGUGAAAGAGAAAAGUGAACCAGAGAAACACACGUUGUGGUAUCUUACCUGGUA [G29A A61C] showed a self-cleavage of 0.163. With GUCCUCUUUCACGUGCGCGUGAAAGAGUGAAGUGAACCAGAGAAACACACGUUGUGGUAUAUUACCUGUUA [A28U G69U] the self-cleavage was 0.0991. GUCCUCUUUCACGUGCGCGUGAAAGAGUGAAGUGAACCAGAGAAACACACGUUGUGGUAUAUUACCUGAUA [A28U G69A] gave a self-cleavage of 0.137. Work on GUCCUCUUUCACGUGCGCGUGAAAGAGUGAAGUGAACCAGAGAAACACACGUUGUGGUAUAUCACCUGGUA [A28U U63C] yielded a self-cleavage of 0.113. GUCCUCUUUCACGUGCGCGUGAAAGAGUGAAGUGAACCAGAGAAACACACUUUGUGGUAUAUUACCUGGUA [A28U G51U] gave a self-cleavage of 0.485. GUCCUCUUUCACGUGCGCGUGAAAGAGUGAAGUGAACCAGAGAAACACACCUUGUGGUAUAUUACCUGGUA [A28U G51C] gave a self-cleavage of 0.49. GUCCUCUUUCACGUGCGCGUGAAAGAGAAAAGUGAACCAGAGAAACACCCGUUGUGGUAUAUUACCUGGUA [G29A A49C] gave a self-cleavage of 0.179. With GUCCUCUUUCACGUGCGCGUGAAAGAGUGAAGUGAACCAGAGAAACACACGUUGUGGUAUAUUAUCUGGUA [A28U C65U] the self-cleavage was 0.153. Variant GUCCUCUUUCACGUGCGCGUGAAAGAGUGAAGUGAACCAGAGAAACACACGUUGUGGUAUAUUAGCUGGUA [A28U C65G] has a self-cleavage of 0.151. With GUCCUCUUUCACGUGCGCGUGAAAGAGUGAAGUGAACCAGAGAAACACACGUUGUGGUAUAUUACCGGGUA [A28U U67G] the self-cleavage was 0.201. GUCCUCUUUCACGUGCGCGUGAAAGAGUGAAGUGAACCAGAGAAACACACGUUGUGGUAUGUUACCUGGUA [A28U A61G] showed a self-cleavage of 0.0909. Work on GUCCUCUUUCACGUGCGCGUGAAAGAGUGAAGUGAACCAGAGAAACACACGUUGUGGAAUAUUACCUGGUA [A28U U58A] yielded a self-cleavage of 0.36.
